In patent USRE48267E1, “Variants of C-type natriuretic peptide” (priority 2009, dated 2020):
Bridges are numbered along the chain shown (N, C = ends). Where no end group is shown, it is not given here. The star is where a group is joined. Heptanoyl = CCCCCCC(=O)*

T1: NPR-B (natriuretic peptide receptor B), murine, expressed endogenously on NIH3T3 cells (murine, UniProt Q6VVW5 17-1047)
T1 sequence (looked up): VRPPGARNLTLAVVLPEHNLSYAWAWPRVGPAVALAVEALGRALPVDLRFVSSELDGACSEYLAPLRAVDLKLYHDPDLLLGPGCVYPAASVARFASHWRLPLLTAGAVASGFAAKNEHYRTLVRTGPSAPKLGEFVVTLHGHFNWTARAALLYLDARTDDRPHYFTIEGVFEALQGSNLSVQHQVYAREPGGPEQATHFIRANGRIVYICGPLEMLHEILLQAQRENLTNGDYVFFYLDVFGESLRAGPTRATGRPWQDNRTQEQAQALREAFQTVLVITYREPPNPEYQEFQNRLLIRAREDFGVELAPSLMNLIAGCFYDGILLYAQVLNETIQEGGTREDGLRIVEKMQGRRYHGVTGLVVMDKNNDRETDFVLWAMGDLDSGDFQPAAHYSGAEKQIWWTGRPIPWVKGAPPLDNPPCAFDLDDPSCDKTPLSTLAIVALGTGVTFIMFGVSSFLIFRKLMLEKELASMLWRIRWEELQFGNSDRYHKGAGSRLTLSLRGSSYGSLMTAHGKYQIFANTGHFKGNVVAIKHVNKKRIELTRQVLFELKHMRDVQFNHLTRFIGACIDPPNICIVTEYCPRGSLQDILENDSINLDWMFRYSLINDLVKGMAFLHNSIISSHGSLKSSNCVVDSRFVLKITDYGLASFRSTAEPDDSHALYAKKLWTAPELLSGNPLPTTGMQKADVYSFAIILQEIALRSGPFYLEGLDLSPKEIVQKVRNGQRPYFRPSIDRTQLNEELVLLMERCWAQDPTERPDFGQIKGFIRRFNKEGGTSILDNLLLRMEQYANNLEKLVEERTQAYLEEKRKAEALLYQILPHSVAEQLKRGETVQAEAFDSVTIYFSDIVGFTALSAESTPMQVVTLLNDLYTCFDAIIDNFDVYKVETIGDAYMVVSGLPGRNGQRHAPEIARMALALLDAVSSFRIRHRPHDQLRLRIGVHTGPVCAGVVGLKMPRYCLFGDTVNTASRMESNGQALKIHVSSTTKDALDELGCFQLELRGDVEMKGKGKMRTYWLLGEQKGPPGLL

B1: CNP53 (peptide)
peptide: DLRVDTKSRAAWARLLQEHPNARKYKGANKKGLSKGCFGLKLDRIGSMSGLGC
B2: CNP22, K4R, K10R, N-term.--N-term. dimer/Bis-PEO5 (peptide)
peptide: GLSRGCFGLRLDRIGSMSGLGC
modifications: ends and bridges not checked; also: dimer joined N-terminus to N-terminus by Bis-PEO5
B3: CNP22, K4R, K10R, N-term.--N-term. dimer/disuccinimidyl glutarate (peptide)
peptide: GLSRGCFGLRLDRIGSMSGLGC
modifications: ends and bridges not checked; also: dimer joined N-terminus to N-terminus by disuccinimidyl glutarate

Biological target: T1, NPR-B (natriuretic peptide receptor B), …
Test: cell-based or functional assay

| Binder | cGMP response rel. to 1 uM CNP22; 10 nM peptide, NIH3T3 cells | cGMP response rel. to 1 uM CNP22; 1 uM peptide, NIH3T3 cells |
| --- | --- | --- |
| GLSRGCFGLKLDRIGSMSGLSC [CNP22, K4R, G21S] | 7 rel. to 1 uM CNP22 (100) | 39 rel. to 1 uM CNP22 (100) |

Biological target: T1, NPR-B (natriuretic peptide receptor B), …
Test: cell-based or functional assay
Remark: another data set of the same source

| Binder | cGMP response rel. to 1 uM CNP22; 10 nM peptide, NIH3T3 cells | cGMP response rel. to 1 uM CNP22; 1 uM peptide, NIH3T3 cells |
| --- | --- | --- |
| QEHPNARKYKGANKKGLSKGCFGLKLDRIGSMSGLGC (ends and bridges not checked; cysteine pairing not given here) [QEHPNARKYKGANKK-CNP22 (CNP37)] | 43 rel. to 1 uM CNP22 (100) | 97 rel. to 1 uM CNP22 (100) |
| AAWARLLQEHPNAGLSKGCFGLKLDRIGSMSGLGC (ends and bridges not checked; cysteine pairing not given here) [AAWARLLQEHPNA-CNP22] | 24 rel. to 1 uM CNP22 (100) | 76 rel. to 1 uM CNP22 (100) |
| GQEHPNARKYKGANPKGLSKGCFGLKLDRIGSMSGLGC (ends and bridges not checked; cysteine pairing not given here) [GQEHPNARKYKGANPK-CNP22 (modified CNP37)] | 19 rel. to 1 uM CNP22 (100) | 61 rel. to 1 uM CNP22 (100) |
| GQEHPNARKYKGANQKGLSKGCFGLKLDRIGSMSGLGC (ends and bridges not checked; cysteine pairing not given here) [GQEHPNARKYKGANQK-CNP22 (modified CNP37)] | 60 rel. to 1 uM CNP22 (100) | 121 rel. to 1 uM CNP22 (100) |
| GQEHPNARKYKGANKKGLSKGCFGLKLDRIGSMSGLGC (ends and bridges not checked; cysteine pairing not given here) [GQEHPNARKYKGANKK-CNP22 (Gly-CNP37)] | 50 rel. to 1 uM CNP22 (100) | 98 rel. to 1 uM CNP22 (100) |
| GQEHPNARKYKGANQQGLSKGCFGLKLDRIGSMSGLGC (ends and bridges not checked; cysteine pairing not given here) [GQEHPNARKYKGANQQ-CNP22 (modified CNP37)] | 9 rel. to 1 uM CNP22 (100) | 57 rel. to 1 uM CNP22 (100) |
| GERAFKAWAVARLSQGLSKGCFGLKLDRIGSMSGLGC [GERAFKAWAVARLSQ-CNP22 (HSA fragment)] | 15 rel. to 1 uM CNP22 (100) | 87 rel. to 1 uM CNP22 (100) |
| GANPRGLSRGCFGLKLDRIGSMSGLGC [GANPR-CNP22, K4R] | 50 rel. to 1 uM CNP22 (100) | 105 rel. to 1 uM CNP22 (100) |
| GQPREPQVYTLPPSGLSKGCFGLKLDRIGSMSGLGC [GQPREPQVYTLPPS-CNP22 (IgG1(Fc) fragment)] | 23 rel. to 1 uM CNP22 (100) | 72 rel. to 1 uM CNP22 (100) |
| GANRRGLSRGCFGLKLDRIGSMSGLGC [GANRR-CNP22, K4R] | 59 rel. to 1 uM CNP22 (100) | 105 rel. to 1 uM CNP22 (100) |
| GANQQGLSRGCFGLKLDRIGSMSGLGC [GANQQ-CNP22, K4R] | 44 rel. to 1 uM CNP22 (100) | 95 rel. to 1 uM CNP22 (100) |
| GSTGQWHSESGANQQGLSRGCFGLKLDRIGSMSGLGC [GSTGQWHSESGANQQ-CNP22, K4R (fibrinogen)] | 2 rel. to 1 uM CNP22 (100) | 33 rel. to 1 uM CNP22 (100) |
| B1 | 61 rel. to 1 uM CNP22 (100) | 101 rel. to 1 uM CNP22 (100) |
| RGLSRGCFGLKLDRIGSMSGLGC [R-CNP22, K4R] | 54 rel. to 1 uM CNP22 (100) | 106 rel. to 1 uM CNP22 (100) |
| GANSSGLSRGCFGLKLDRIGSMSGLGC [GANSS-CNP22, K4R] | 27 rel. to 1 uM CNP22 (100) | 88 rel. to 1 uM CNP22 (100) |
| GHKSEVAHRFKGANKKGLSKGCFGLKLDRIGSMSGLGC [GHKSEVAHRFKGANKK-CNP22 (HSA-CNP27)] | 51 rel. to 1 uM CNP22 (100) | 109 rel. to 1 uM CNP22 (100) |
| GQPREPQVYTGANQQGLSRGCFGLKLDRIGSMSGLGC [GQPREPQVYTGANQQ-CNP22, K4R (IgG1(Fc) fragment)] | 2 rel. to 1 uM CNP22 (100) | 32 rel. to 1 uM CNP22 (100) |
| B2 | 19 rel. to 1 uM CNP22 (100) | 41 rel. to 1 uM CNP22 (100) |
| GHHSHEQHPHGANQQGLSKGCFGLKLDRIGSMSGLGC [GHHSHEQHPHGANQQ-CNP22 (HRGP fragment)] | 16 rel. to 1 uM CNP22 (100) | 95 rel. to 1 uM CNP22 (100) |
| Heptanoyl-ELSKGCFGLKLDRIGSMSGLGC (ends and bridges not checked) [Heptanoic acid (N-term.)-CNP22, G1E] | 32 rel. to 1 uM CNP22 (100) | 84 rel. to 1 uM CNP22 (100) |
| GAHHPHEHDTHGANQQGLSKGCFGLKLDRIGSMSGLGC [GAHHPHEHDTHGANQQ-CNP22 (HRGP fragment)] | 14 rel. to 1 uM CNP22 (100) | 77 rel. to 1 uM CNP22 (100) |
| ERGLSRGCFGLKLDRIGSMSGLGC [ER-CNP22, K4R] | 38 rel. to 1 uM CNP22 (100) | 113 rel. to 1 uM CNP22 (100) |
| B3 | 19 rel. to 1 uM CNP22 (100) | 44 rel. to 1 uM CNP22 (100) |
| AAWARLLQEHPNARGLSKGCFGLKLDRIGSMSGLGC (ends and bridges not checked; cysteine pairing not given here) [AAWARLLQEHPNAR-CNP22] | 36 rel. to 1 uM CNP22 (100) | 84 rel. to 1 uM CNP22 (100) |
| SPKMVQGSGCFGLKLDRIGSMSGLGCKVLRRH (disulfide 10-26 (inferred)) [SPKMVQGSG-CNP17-KVLRRH (BNP tails)] | 25 rel. to 1 uM CNP22 (100) | 102 rel. to 1 uM CNP22 (100) |
| DLRVDTKSRAAWARGLSKGCFGLKLDRIGSMSGLGC [DLRVDTKSRAAWAR-CNP22] | 34 rel. to 1 uM CNP22 (100) | 101 rel. to 1 uM CNP22 (100) |
| GVPQVSTSTGANQQGLSRGCFGLKLDRIGSMSGLGC [GVPQVSTSTGANQQ-CNP22, K4R (HSA fragment)] | 3 rel. to 1 uM CNP22 (100) | 35 rel. to 1 uM CNP22 (100) |
| PGHKSEVAHRFKGANKKGLSKGCFGLKLDRIGSMSGLGC [PGHKSEVAHRFKGANKK-CNP22 (Pro-HSA-CNP27)] | 32 rel. to 1 uM CNP22 (100) | 107 rel. to 1 uM CNP22 (100) |
| PGQEHPNARKYKGANKKGLSKGCFGLKLDRIGSMSGLGC (ends and bridges not checked; cysteine pairing not given here) [PGQEHPNARKYKGANKK-CNP22 (Pro-Gly-CNP37)] | 49 rel. to 1 uM CNP22 (100) | 103 rel. to 1 uM CNP22 (100) |
| GQTHSSGTQSGANQQGLSRGCFGLKLDRIGSMSGLGC [GQTHSSGTQSGANQQ-CNP22, K4R (fibrinogen)] | 12 rel. to 1 uM CNP22 (100) | 115 rel. to 1 uM CNP22 (100) |
